Earlier results, collected in publication PMC5413942.

Molecular target: FhuA Ton box peptide Ton box (Escherichia coli) (UniProt P06971)

Chain of TonB (P02929 whole entry): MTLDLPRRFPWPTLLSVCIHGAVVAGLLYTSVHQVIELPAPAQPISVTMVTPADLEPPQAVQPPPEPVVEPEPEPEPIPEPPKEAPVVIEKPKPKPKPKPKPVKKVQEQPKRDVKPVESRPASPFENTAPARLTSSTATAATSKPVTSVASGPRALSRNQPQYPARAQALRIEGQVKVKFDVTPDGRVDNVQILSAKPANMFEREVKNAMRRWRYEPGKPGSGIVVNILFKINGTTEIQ

- Kd: 36 µM
Substance: TonB (from UniProt P02929)
